Assay results from PMC6978347.

B1: AtNBR1^1–94 (AtNBR1–PB1) [Arabidopsis thaliana] / MBP-tagged wild-type AtNBR1–PB1^1–94 [Arabidopsis thaliana] (parent)
chain 1: MESTANALVVKVSYGGVLRRFRVPVKANGQLDLEMAGLKEKIAALFNLSADAELSLTYSDEDGDVVALVDDNDLFDVTNQRLKFLKINVNAGVS
chain 2: B1 chain 1

Variants of: B1
Experiment: pull-down (MBP pulldown, band quantification)
Conditions: with MBP-tagged wild-type AtNBR1–PB1^1–94 [Arabidopsis thaliana];; read off a plot

Variant | ratio to parent
chain 1 E61A | 0.22
chain 1 D60A D62A | 0.06
chain 1 D64A | 0.27

Further lines, results first:

ratio to parent | Variant
0.32 | chain 1 K11A
0.04 | chain 1 K11A D60A
0.01 | chain 1 R19A R20A
